The supplement of paper PMC10724198
± gives the standard deviation of the averaged measurements.

Tested on: Saccharomyces cerevisiae
Test: protein stability index of tFT-peptide fusion (C-terminal peptide) (PSI (0-1 scale)); higher = more stable (slower turnover)
Conditions: temperature: 30 C
Protocol: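 MPS profiling in S. cerevisiae of the yeast C-terminome library: the last 12 aa of each annotated ORF are fused to the C-terminus of a sfGFP-mCherry timer, after a GGGS linker. Cells are FACS-sorted into 8 mCherry/sfGFP bins and deep-sequenced. PSI runs from 0 (unstable) to 1 (stable); wild type and das1Δ backgrounds, two technical replicates each.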

[1] = genetic background: das1 deletion

| Sequence | protein stability index [1] | protein stability index (genetic background: wild type) |
| --- | --- | --- |
| PNFGFLILNSEP [YAL064W C-terminal 12 aa] | 0.73226 ± 0.00022 | 0.68 ± 0.014 |
| RRMKLKERKRTT [YBL029W C-terminal 12 aa] | 0.713 ± 0.022 | 0.655 ± 0.05 |
| AVVLQSIQFTSE [IML3 C-terminal 12 aa] | 0.621 ± 0.018 | 0.608 ± 0.024 |
| EKQQRRNMKNAL [RRS1 C-terminal 12 aa] | 0.704 ± 0.034 | 0.703 ± 0.01 |
| RKGWTGFKKVFK [GYP5 C-terminal 12 aa] | 0.695 ± 0.025 | 0.699 ± 0.061 |
| YEPTDWECTDAP [YJR096W C-terminal 12 aa] | 0.7254 ± 0.0027 | 0.708 ± 0.06 |
| SRSNSHRTFFKR [FPK1 C-terminal 12 aa] | 0.737 ± 0.053 | 0.714 ± 0.043 |
| AELILETSYDKF [MRX1 C-terminal 12 aa] | 0.729 ± 0.011 | 0.722 ± 0.055 |
| VYARDAAALRPV [SCS3 C-terminal 12 aa] | 0.716 ± 0.021 | 0.686 ± 0.03 |
| DLAERLAETEIK [RNA1 C-terminal 12 aa] | 0.703 ± 0.0088 | 0.692 ± 0.024 |
| IGIGTHDLHFGS [YHR052W-A C-terminal 12 aa] | 0.728 ± 0.033 | 0.7123 ± 0.0016 |
| WQTLVMILQESG [NPL4 C-terminal 12 aa] | 0.392 ± 0.0077 | 0.444 ± 0.021 |
| HCTVVLPSILKR [YHR217C C-terminal 12 aa] | 0.714 ± 0.024 | 0.705 ± 0.0033 |
| SKREFIESLRPK [SKG1 C-terminal 12 aa] | 0.707 ± 0.029 | 0.679 ± 0.03 |
| SQVLPESERRLD [ATG22 C-terminal 12 aa] | 0.675 ± 0.013 | 0.676 ± 0.03 |
| ILELPHVVSDLF [SDT1 C-terminal 12 aa] | 0.713 ± 0.0089 | 0.7147 ± 0.0022 |
| KYYETVGKADII [AIM36 C-terminal 12 aa] | 0.68805 ± 0.00047 | 0.697 ± 0.025 |
| SGETSDIIFRNY [ADK2 C-terminal 12 aa] | 0.74 ± 0.023 | 0.786 ± 0.012 |
| SFHKEFFDQYRD [ALT1 C-terminal 12 aa] | 0.7326 ± 0.0045 | 0.774 ± 0.048 |
| TLSMYPRRRFYH [GPG1 C-terminal 12 aa] | 0.709 ± 0.011 | 0.608 ± 0.043 |
| DRVGEVFAKLFG [NNR2 C-terminal 12 aa] | 0.7119 ± 0.0012 | 0.728 ± 0.011 |

| Sequence | protein stability index [1] | protein stability index (genetic background: wild type) |
| --- | --- | --- |
| NFTIHRPLNNGR [YDL062W C-terminal 12 aa] | 0.731 ± 0.044 | 0.734 ± 0.027 |
| AVIVHSYTVQHM [TRM3 C-terminal 12 aa] | 0.695 ± 0.032 | 0.632 ± 0.046 |
| RAQPGRKRKHKK [RSC58 C-terminal 12 aa] | 0.743 ± 0.019 | 0.696 ± 0.0068 |
| IADHLVGRKRVD [PFK2 C-terminal 12 aa] | 0.701 ± 0.014 | 0.712 ± 0.059 |
| PSPTALANLARK [SGF29 C-terminal 12 aa] | 0.677 ± 0.039 | 0.693 ± 0.041 |
| VLMLETIAYLFS [NFG1 C-terminal 12 aa] | 0.487 ± 0.022 | 0.5059 ± 0.0015 |
| SLDQEIQSLLSK [GPX2 C-terminal 12 aa] | 0.6903 ± 0.0018 | 0.654 ± 0.028 |
| TASGEDSHLLKQ [BRL1 C-terminal 12 aa] | 0.669 ± 0.029 | 0.689 ± 0.026 |
| DEQPTLSQSKTK [DAD1 C-terminal 12 aa] | 0.708 ± 0.012 | 0.714 ± 0.076 |
| MEDEDMVDVIID [ESC2 C-terminal 12 aa] | 0.689 ± 0.02 | 0.7232 ± 0.0017 |
| ECRARKASSNRS [YGR109W-A C-terminal 12 aa] | 0.681 ± 0.0073 | 0.707 ± 0.024 |
| RSVGKNSEKVST [QDR1 C-terminal 12 aa] | 0.6986 ± 0.0019 | 0.695 ± 0.01 |
| ISLWYKHNRVKG [YPR077C C-terminal 12 aa] | 0.677 ± 0.017 | 0.5619 ± 0.0045 |
| SAIENYRKAYGI [URA10 C-terminal 12 aa] | 0.664 ± 0.038 | 0.69935 ± 0.00068 |
| IVNDVWLPFQKW [DSD1 C-terminal 12 aa] | 0.729 ± 0.03 | 0.701 ± 0.02 |
| YPGEAKRPQERF [COX10 C-terminal 12 aa] | 0.6898 ± 0.0058 | 0.7 ± 0.047 |
| AQQNYRLWLSSF [ICY1 C-terminal 12 aa] | 0.7166 ± 0.0069 | 0.6246 ± 0.0033 |
| KARIVVAKSGEL [CPR1 C-terminal 12 aa] | 0.686 ± 0.018 | 0.645 ± 0.015 |
| LERLRYLFPNYW [MEU1 C-terminal 12 aa] | 0.738 ± 0.016 | 0.717 ± 0.051 |
| LDDTPAPTATNL [NUD1 C-terminal 12 aa] | 0.6857 ± 0.0035 | 0.701 ± 0.034 |
| YLALKWIVVEQK [ADP1 C-terminal 12 aa] | 0.521 ± 0.021 | 0.573 ± 0.018 |

| Sequence | protein stability index [1] | protein stability index (genetic background: wild type) |
| --- | --- | --- |
| EHRNIEWEKKTA [POL4 C-terminal 12 aa] | 0.7 ± 0.014 | 0.694 ± 0.054 |
| RYRLSQRQESKK [MRX4 C-terminal 12 aa] | 0.698 ± 0.011 | 0.682 ± 0.021 |
| DISDSEGGLFEC [PCI8 C-terminal 12 aa] | 0.69 ± 0.085 | 0.694 ± 0.085 |
| MHSNFQNLFNLK [CLB5 C-terminal 12 aa] | 0.708 ± 0.026 | 0.707 ± 0.026 |
| SKKVICNTFGYN [DDI2 C-terminal 12 aa] | 0.689 ± 0.027 | 0.733 ± 0.1 |
| DILGFKIAPRSA [YGR210C C-terminal 12 aa] | 0.682 ± 0.049 | 0.7073 ± 0.0013 |
| FTPSNQSHGNFY [TEC1 C-terminal 12 aa] | 0.718 ± 0.015 | 0.662 ± 0.007 |
| ELLCKGICKAAE [HEL1 C-terminal 12 aa] | 0.6857 ± 0.0035 | 0.674 ± 0.017 |
| SSSGTSSSHLEL [APL6 C-terminal 12 aa] | 0.702 ± 0.0062 | 0.672 ± 0.028 |
| WEHAMRSRRHKR [SWC3 C-terminal 12 aa] | 0.726 ± 0.0012 | 0.673 ± 0.027 |
| SLPLVSLFIVLA [YJL064W C-terminal 12 aa] | 0.267 ± 0.019 | 0.268 ± 0.0062 |
| DLASFIKKSLSS [TML25 C-terminal 12 aa] | 0.694 ± 0.017 | 0.734 ± 0.032 |
| SLYTLNYNVKNP [ATG17 C-terminal 12 aa] | 0.7157 ± 0.0035 | 0.6907 ± 0.00092 |
| DILLSCIADLTI [POL2 C-terminal 12 aa] | 0.71 ± 0.04 | 0.707 ± 0.054 |
| EAVYELAKMSLA [MYG1 C-terminal 12 aa] | 0.703 ± 0.025 | 0.6777 ± 0.0052 |
| KLAKPAPTSKLD [TDA4 C-terminal 12 aa] | 0.6901 ± 0.0021 | 0.692 ± 0.025 |
| QSATKNQQNQGK [SSQ1 C-terminal 12 aa] | 0.679 ± 0.011 | 0.656 ± 0.01 |
| LLEDLRSRIDLD [MLO50 C-terminal 12 aa] | 0.685 ± 0.048 | 0.744 ± 0.087 |
| HLYFQNPPPAMC [HOT13 C-terminal 12 aa] | 0.72 ± 0.021 | 0.728 ± 0.031 |
| GIDVHYVFRTYH [CIN10 C-terminal 12 aa] | 0.704 ± 0.012 | 0.6311 ± 0.0031 |
| SLDDFGVDVDME [PFA4 C-terminal 12 aa] | 0.711 ± 0.016 | 0.683 ± 0.016 |

| Sequence | protein stability index [1] | protein stability index (genetic background: wild type) |
| --- | --- | --- |
| SSYFRIEGKKKK [CUE2 C-terminal 12 aa] | 0.68 ± 0.022 | 0.683 ± 0.024 |
| DEEEEIEPEVKA [SBA1 C-terminal 12 aa] | 0.678 ± 0.017 | 0.685 ± 0.027 |
| TTNANVNNSSLS [FKH1 C-terminal 12 aa] | 0.715 ± 0.021 | 0.6623 ± 0.0022 |
| SMTTTNFSDFSL [UPC2 C-terminal 12 aa] | 0.6932 ± 0.0047 | 0.688 ± 0.036 |
| LISEFQKKQAKK [MEF1 C-terminal 12 aa] | 0.7194 ± 0.0033 | 0.691 ± 0.038 |
| ELDEIAASLENL [TPM1 C-terminal 12 aa] | 0.7088 ± 0.0027 | 0.69 ± 0.01 |
| AVHLQAIDLLNC [PIR1 C-terminal 12 aa] | 0.714 ± 0.024 | 0.672 ± 0.01 |
| TAIVAVVALLLL [DAN4 C-terminal 12 aa] | 0.343 ± 0.0084 | 0.353 ± 0.0092 |
| KVNGDIYRLPPS [MBA1 C-terminal 12 aa] | 0.6888 ± 0.001 | 0.677 ± 0.0092 |
| TPEDADEEEDDE [RPL22B C-terminal 12 aa] | 0.6921 ± 0.0011 | 0.655 ± 0.014 |
| KTQDYGKKYNSG [SIZ1 C-terminal 12 aa] | 0.69 ± 0.018 | 0.727 ± 0.0097 |
| KSQISVSFYRDN [YPR027C C-terminal 12 aa] | 0.704 ± 0.04 | 0.6736 ± 0.0023 |
| IKDAIKNGTGLL [MET31 C-terminal 12 aa] | 0.677 ± 0.0075 | 0.678 ± 0.014 |
| LNNLSMERSIRL [GIP3 C-terminal 12 aa] | 0.715 ± 0.015 | 0.666 ± 0.014 |
| ARGYVNVMDNIQ [SEC16 C-terminal 12 aa] | 0.6727 ± 0.0025 | 0.678 ± 0.042 |
| SFFIYVNFTVYF [YCR001W C-terminal 12 aa] | 0.175 ± 0.036 | 0.178 ± 0.033 |
| NGYFGYAPGHYP [OPT2 C-terminal 12 aa] | 0.6844 ± 0.0056 | 0.708 ± 0.031 |
| NVPVSNGTTAAQ [UTP23 C-terminal 12 aa] | 0.695 ± 0.013 | 0.691 ± 0.025 |
| EFKCMSVITAQQ [SEH1 C-terminal 12 aa] | 0.67622 ± 0.00052 | 0.687 ± 0.025 |
| PLPDLDEDDGEE [DOM34 C-terminal 12 aa] | 0.686 ± 0.0069 | 0.704 ± 0.041 |
